B1: H4H098P (antibody, V domains shown)
VH: EVQLVESGGGLEQPGGSLRLSCAGSGFTFRDYAMTWVRQAPGKGLEWVSSISGSGGNTYYADSVKGRFTISRDNSKNTLYLQMNSLRAEDTAVYYCAKDRLSITIRPRYYGLDVWGQGTTVTVS
VL: DIVMTQSPLSLPVTPGEPASISCRSSQSLLYSIGYNYLDWYLQKSGQSPQLLIYLGSNRASGVPDRFSGSGSGTDFTLKISRVEAEDVGFYYCMQALQTPYTFGQGTKLEIK
B2: H4H083P (antibody, V domains shown)
VH: EVQLVESGGGLVQPGRSLRLSCEASGFTFDDYAMHWVRQAPGKGLEWVSGLSRTSVSIGYADSVKGRFTISRDNAKNSLYLEMNSLRPEDTALYYCAKWGTRGYFDYWGQGTLVTVSS
VL: DIQMTQSPSSVSASVGDRVTITCRASQDISIWLAWYQQSPGKAPKLLINVASRLQSGVPSRFSGSGSGTDFTLTINSLQPEDFVTYYCQQANSFPITFGQGTRLEIK
notes: Human anti-hIL-4R antibody captured via anti-hFc
B3: H4H095P (antibody, V domains shown)
VH: QVQLVESGGGVVQPGRSLRLSCAASGFTFRSYGMHWVRQAPGKGLEWVAVISYDGSNKYYIDSVKGRFTISRDNSKNTLNLQMNSLRLEDTAVYYCAKEGRGGFDYWGQGTLVTVSS
VL: DIQMTQSPSSLSASVGDRVTITCRASQVINNYLAWFQQKPGKVPKSLIHAASSLQSGVPSKFSGSGSGTDFTLTISSLQPEDFATYYCQQYNSHPWTFGQGTKVEIK
notes: as for B2

Assays:
[1] = molecular target: T1, mfIL-4R of the cellular bioassay (monkey (Macaca fascicularis), UniProt P24394 26-231 (human entry)); assay: cell-based or functional assay
T1 chain: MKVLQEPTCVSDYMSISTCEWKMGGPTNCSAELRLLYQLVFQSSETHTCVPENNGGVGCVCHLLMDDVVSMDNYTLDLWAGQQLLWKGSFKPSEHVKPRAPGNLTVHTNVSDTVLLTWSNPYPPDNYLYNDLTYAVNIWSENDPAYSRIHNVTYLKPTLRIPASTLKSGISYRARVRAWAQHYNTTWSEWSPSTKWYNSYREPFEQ

[2] = molecular target: T2, hIL-4R on engineered HK293 cells (human STAT6 and STAT6 luciferase reporter) (human, UniProt P24394 26-232); assay: cell-based or functional assay
T2 sequence: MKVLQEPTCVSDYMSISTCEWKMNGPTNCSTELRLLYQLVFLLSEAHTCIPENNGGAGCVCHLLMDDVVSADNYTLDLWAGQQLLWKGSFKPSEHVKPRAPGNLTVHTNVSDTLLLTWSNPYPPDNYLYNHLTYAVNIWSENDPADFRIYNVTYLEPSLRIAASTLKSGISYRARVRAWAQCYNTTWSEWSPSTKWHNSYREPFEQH

dimeric hIL-4R-mFc [3] = molecular target: T3, dimeric hIL-4R-mFc (human, UniProt P24394 26-232); assay: ELISA-based solution competition, 25 pM hIL-4R-mFc, free receptor on biotin-hIL4 plate
T3 construct: not shown: mFc (mouse Fc)
T3 sequence: T2 sequence
Method: (§1) Antibody-antigen binding affinity was also assessed using an ELISA-based solution competition assay. Briefly, a 96-well MAXISORP™ plate was first coated with 5 μg/ml avidin overnight followed by BSA blocking for 1 hr. […] The plate was used to measure either free hIL-4R-mFc (dimeric hIL-4R) or free hIL-4R-myc-myc-his (hIL4R-mmh, monomeric hIL4R) in the antibody titration sample solutions. […] After 1 hr binding, the plate was washed and bound hIL-4R-mFc was detected using either an HRP-conjugated mouse anti-mFc polyclonal antibody or an HRP-conjugated goat anti-myc polyclonal antibodies. IC₅₀ values were determined (Table 2).

dimeric hIL-4R-mFc [4] = molecular target: T3, dimeric hIL-4R-mFc; assay: SPR (BIACORE 2000), antibody captured on anti-hFc, dimeric hIL-4R-mFc, 25° C.
Method: (§2) Briefly, antibody was captured on a goat anti-hFc polyclonal antibody surface created through direct coupling to a BIACORE™ chip to form a captured antibody surface. Various concentrations (ranging from 50 nM to 12.5 nM) of monomeric hIL-4R (R&D Systems) or dimeric hIL-4R-mFc were injected over the captured antibody surface at 10 μl/min for 2.5 min at either 25° C. or 37° C. Binding of antigen to antibody and dissociation of the bound complex, were monitored in real time. Equilibrium dissociation constants (KD) and dissociation rate constants were ascertained by performing kinetic analysis using BIA evaluation software. BIA evaluation software was also used to calculate the half-life of antigen/antibody complex dissociation (T_{1/2}). […] Control: a fully human anti-IL-4R antibody (U.S. Pat. No. 7,186, 809; SEQ ID NOs:10 and 12).

[5] = molecular target: T4, monomeric hIL-4R (R&D Systems) (human, UniProt P24394 26-232, limits assumed); assay: SPR (BIACORE 2000), antibody captured on anti-hFc, monomeric hIL-4R, 37° C.
T4 construct: Bought protein (R&D Systems); also called human IL-4 receptor alpha
T4 sequence: T2 sequence
Method: as §2

[6] = molecular target: T4, monomeric hIL-4R (R&D Systems); assay: SPR (BIACORE 2000), antibody captured on anti-hFc, monomeric hIL-4R, 25° C.
Method: as §2

dimeric hIL-4R-mFc [7] = molecular target: T3, dimeric hIL-4R-mFc; assay: SPR (BIACORE 2000), antibody captured on anti-hFc, dimeric hIL-4R-mFc, 37° C.
Method: as §2

hIL-4R-myc-myc-his = molecular target: T5, hIL-4R-myc-myc-his (human, UniProt P24394 26-232); assay: ELISA-based solution competition, 200 pM hIL-4R-mmh, free receptor on biotin-hIL4 plate
T5 construct: also called hIL-4R-mmh; hIL4R-mmh; not shown: myc-myc-his tag
T5 sequence: T2 sequence
Method: as §1

Binder	IC50, bioassay in the presence of 360 fM mfIL-4 [1] [nM]	IC50 (pM), STAT6 luciferase bioassay, 10 pM hIL-4 [2] [pM]	IC50 (pM), STAT6 luciferase bioassay, 40 pM hIL-13 [2] [pM]	IC50 (dimeric hIL-4R-mFc [3]) [nM]	T1/2 (dimeric hIL-4R-mFc [4]) [h]	Kd [5] [nM]	T1/2 [5] [h]	Kd [6] [nM]	T1/2 [6] [h]	Kd (dimeric hIL-4R-mFc [7]) [nM]	T1/2 (dimeric hIL-4R-mFc [7]) [h]	IC50 (hIL-4R-myc-myc-his) [nM]	Kd (dimeric hIL-4R-mFc [4]) [nM]
B1	150	27	25	–	–	–	–	–	–	–	–	–	–
B2	–	25	19	0.0096	4.08	0.183	1.45	0.048	6.02	0.0381	2.72	0.08	–
B3	–	98	86	0.04	2.6	0.437	0.817	0.274	2.18	0.314	1.93	0.09	0.302

Source: US20090074793A1 (published 2009)
